Data taken from IntAct's records for PubMed 12782684.

B1: Ras-like protein 2 (Saccharomyces cerevisiae), P01120 (parent)
chain: MPLNKSNIREYKLVVVGGGGVGKSALTIQLTQSHFVDEYDPTIEDSYRKQVVIDDEVSILDILDTAGQEEYSAMREQYMRNGEGFLLVYSITSKSSLDELMTYYQQILRVKDTDYVPIVVVGNKSDLENEKQVSYQDGLNMAKQMNAPFLETSAKQAINVEEAFYTLARLVRDEGGKYNKTLTENDNSKQTSQDTKGSGANSVPRNSGGHRKMSNAANGKNVNSSTTVVNARNASIESKTGLAGNQATNGKTQTDRTNIDNSTGQAGQANAQSANTVNNRVNNNSKAGQVSNAKQARKQQAAPGGNTSEASKSGSGGCCIIS
partner: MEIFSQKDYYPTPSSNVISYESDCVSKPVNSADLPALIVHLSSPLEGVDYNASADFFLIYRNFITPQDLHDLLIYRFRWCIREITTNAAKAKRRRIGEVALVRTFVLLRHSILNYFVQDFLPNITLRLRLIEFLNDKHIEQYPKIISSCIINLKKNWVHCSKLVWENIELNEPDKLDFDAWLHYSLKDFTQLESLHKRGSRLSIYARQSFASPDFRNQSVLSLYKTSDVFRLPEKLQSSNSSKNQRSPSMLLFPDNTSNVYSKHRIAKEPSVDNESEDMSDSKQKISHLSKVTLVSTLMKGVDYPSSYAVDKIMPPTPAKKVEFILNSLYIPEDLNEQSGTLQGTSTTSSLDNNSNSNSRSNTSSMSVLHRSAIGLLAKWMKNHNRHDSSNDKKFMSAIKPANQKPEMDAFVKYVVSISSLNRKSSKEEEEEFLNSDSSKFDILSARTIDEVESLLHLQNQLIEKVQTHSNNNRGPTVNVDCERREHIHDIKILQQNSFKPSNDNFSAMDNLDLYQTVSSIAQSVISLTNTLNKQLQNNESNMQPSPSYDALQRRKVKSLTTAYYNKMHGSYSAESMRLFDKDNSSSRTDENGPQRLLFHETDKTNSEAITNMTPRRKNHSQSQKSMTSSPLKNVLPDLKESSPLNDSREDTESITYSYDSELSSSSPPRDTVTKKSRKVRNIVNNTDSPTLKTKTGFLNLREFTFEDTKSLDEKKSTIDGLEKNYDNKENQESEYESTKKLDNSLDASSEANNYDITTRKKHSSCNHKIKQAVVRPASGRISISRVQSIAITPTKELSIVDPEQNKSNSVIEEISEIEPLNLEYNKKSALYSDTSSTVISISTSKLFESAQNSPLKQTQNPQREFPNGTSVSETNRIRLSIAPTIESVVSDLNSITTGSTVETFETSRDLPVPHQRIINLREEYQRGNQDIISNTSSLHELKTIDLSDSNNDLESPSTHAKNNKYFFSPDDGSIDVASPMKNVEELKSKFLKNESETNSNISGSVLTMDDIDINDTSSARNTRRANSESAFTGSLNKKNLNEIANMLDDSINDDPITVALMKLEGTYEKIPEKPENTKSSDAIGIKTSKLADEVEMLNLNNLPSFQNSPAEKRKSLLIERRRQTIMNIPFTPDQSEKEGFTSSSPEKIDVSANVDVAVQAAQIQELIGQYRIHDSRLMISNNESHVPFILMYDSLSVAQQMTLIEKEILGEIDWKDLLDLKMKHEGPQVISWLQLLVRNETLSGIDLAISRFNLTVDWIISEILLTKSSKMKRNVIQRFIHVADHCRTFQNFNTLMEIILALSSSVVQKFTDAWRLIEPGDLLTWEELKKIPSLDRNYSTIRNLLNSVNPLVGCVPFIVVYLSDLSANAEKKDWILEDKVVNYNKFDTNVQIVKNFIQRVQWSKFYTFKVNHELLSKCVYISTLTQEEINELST

Variants of: B1
Conditions: with lte1_yeast LTE1, P07866

Row | effect of a mutation on the interaction | Variant
1 | increasing interaction | G19V

Variants of: B1
Conditions: with lte1_yeast LTE1, P07866
Remark: another data set of the same source

Row | effect of a mutation on the interaction | Variant
2 | disrupting interaction | C318S

Variants of: B1
Conditions: with lte1_yeast LTE1, P07866
Remark: another data set of the same source

Row | effect of a mutation on the interaction | Variant
3 | disrupting interaction | G22N
